Source: patent US20220048967A1 (published 2022)
Numbered stars: 1 amine (or outer) side, 2 acyl side, 3 side chain; on linkers, the order of the positions; unused ones are H or OH. Square brackets hold non-standard residues; d marks the D form. Side chains are listed from the residue outwards. Ends that are not written are not given here. * marks the point of attachment. C20 diacid = O=C(O)CCCCCCCCCCCCCCCCCCC(=O)*; C18 diacid = O=C(O)CCCCCCCCCCCCCCCCC(=O)*; γGlu = O=C(O)[C@H](CCC(=O)[*:2])N[*:1]; αMeF = C[C@](N)(Cc1ccccc1)C(=O)O; αMeK = C[C@](N)(CCCCN)C(=O)O; Dab = NCC[C@H](N)C(=O)O; AEEA = NCCOCCOCC(=O)O; Aib = CC(C)(N)C(=O)O

B1: Example 298 (peptide)
peptide: Y[Aib]EGTFTSDYSILLDKK([AEEA-AEEA-γGlu-C18 diacid])AQ[Aib]AFVEYLIEGGPSSG-NH2
modifications: N-terminus assumed
SMILES: CC[C@H](C)[C@H](NC(=O)[C@H](CC(C)C)NC(=O)[C@H](Cc1ccc(O)cc1)NC(=O)[C@H](CCC(=O)O)NC(=O)[C@@H](NC(=O)[C@H](Cc1ccccc1)NC(=O)[C@H](C)NC(=O)C(C)(C)NC(=O)[C@H](CCC(N)=O)NC(=O)[C@H](C)NC(=O)[C@H](CCCCNC(=O)COCCOCCNC(=O)COCCOCCNC(=O)CC[C@H](NC(=O)CCCCCCCCCCCCCCCCC(=O)O)C(=O)O)NC(=O)[C@H](CCCCN)NC(=O)[C@H](CC(=O)O)NC(=O)[C@H](CC(C)C)NC(=O)[C@H](CC(C)C)NC(=O)[C@@H](NC(=O)[C@H](CO)NC(=O)[C@H](Cc1ccc(O)cc1)NC(=O)[C@H](CC(=O)O)NC(=O)[C@H](CO)NC(=O)[C@@H](NC(=O)[C@H](Cc1ccccc1)NC(=O)[C@@H](NC(=O)CNC(=O)[C@H](CCC(=O)O)NC(=O)C(C)(C)NC(=O)[C@@H](N)Cc1ccc(O)cc1)[C@@H](C)O)[C@@H](C)O)[C@@H](C)CC)C(C)C)C(=O)N[C@@H](CCC(=O)O)C(=O)NCC(=O)NCC(=O)N1CCC[C@H]1C(=O)N[C@@H](CO)C(=O)N[C@@H](CO)C(=O)NCC(N)=O
B2: Example 16 (peptide)
peptide: H[Aib]EGTFTSDYSILLDKK([AEEA-AEEA-γGlu-C20 diacid])AQ[Aib]AFIEYLIE[Aib]GPSSGAPPPS-NH2
modifications: N-terminus assumed
SMILES: CC[C@H](C)[C@H](NC(=O)[C@H](Cc1ccccc1)NC(=O)[C@H](C)NC(=O)C(C)(C)NC(=O)[C@H](CCC(N)=O)NC(=O)[C@H](C)NC(=O)[C@H](CCCCNC(=O)COCCOCCNC(=O)COCCOCCNC(=O)CC[C@H](NC(=O)CCCCCCCCCCCCCCCCCCC(=O)O)C(=O)O)NC(=O)[C@H](CCCCN)NC(=O)[C@H](CC(=O)O)NC(=O)[C@H](CC(C)C)NC(=O)[C@H](CC(C)C)NC(=O)[C@@H](NC(=O)[C@H](CO)NC(=O)[C@H](Cc1ccc(O)cc1)NC(=O)[C@H](CC(=O)O)NC(=O)[C@H](CO)NC(=O)[C@@H](NC(=O)[C@H](Cc1ccccc1)NC(=O)[C@@H](NC(=O)CNC(=O)[C@H](CCC(=O)O)NC(=O)C(C)(C)NC(=O)[C@@H](N)Cc1c[nH]cn1)[C@@H](C)O)[C@@H](C)O)[C@@H](C)CC)C(=O)N[C@@H](CCC(=O)O)C(=O)N[C@@H](Cc1ccc(O)cc1)C(=O)N[C@@H](CC(C)C)C(=O)N[C@H](C(=O)N[C@@H](CCC(=O)O)C(=O)NC(C)(C)C(=O)NCC(=O)N1CCC[C@H]1C(=O)N[C@@H](CO)C(=O)N[C@@H](CO)C(=O)NCC(=O)N[C@@H](C)C(=O)N1CCC[C@H]1C(=O)N1CCC[C@H]1C(=O)N1CCC[C@H]1C(=O)N[C@@H](CO)C(N)=O)[C@@H](C)CC
B3: Example 3 (peptide)
peptide: YXEGTXTSDYSIXLDXKAQXEFIXYLIEGGPSSGAPPPS
modifications: Aib2, αMeF(2F)6, αMeL13, Orn16, K17 conjugated to (2-[2-(2-Amino-ethoxy)-ethoxy]-acetyl)2-(γ-Glu)-CO-(CH2)18-CO2H, Aib20, D-Glu24, C-terminal amide (NH2)
B4: Example 5 (peptide)
peptide: YXEGTXTSDVSIXLDXKAQXEFIXXLIEGGPSSGAPPPS
modifications: Aib2, αMeF(2F)6, αMeL13, Orn16, K17 conjugated to (2-[2-(2-Amino-ethoxy)-ethoxy]-acetyl)2-(γ-Glu)-CO-(CH2)16-CO2H, Aib20, D-Glu24, αMeY25, C-terminal amide (NH2)
B5: Example 13 (peptide)
peptide: Y[Aib]EGTFTSDYSILLD[Aib]IAQK([AEEA-AEEA-γGlu-C20 diacid])AFIEYLIEGGPSSGAPPPS-NH2
modifications: N-terminus assumed
SMILES: CC[C@H](C)[C@H](NC(=O)[C@H](CC(C)C)NC(=O)[C@H](Cc1ccc(O)cc1)NC(=O)[C@H](CCC(=O)O)NC(=O)[C@@H](NC(=O)[C@H](Cc1ccccc1)NC(=O)[C@H](C)NC(=O)[C@H](CCCCNC(=O)COCCOCCNC(=O)COCCOCCNC(=O)CC[C@H](NC(=O)CCCCCCCCCCCCCCCCCCC(=O)O)C(=O)O)NC(=O)[C@H](CCC(N)=O)NC(=O)[C@H](C)NC(=O)[C@@H](NC(=O)C(C)(C)NC(=O)[C@H](CC(=O)O)NC(=O)[C@H](CC(C)C)NC(=O)[C@H](CC(C)C)NC(=O)[C@@H](NC(=O)[C@H](CO)NC(=O)[C@H](Cc1ccc(O)cc1)NC(=O)[C@H](CC(=O)O)NC(=O)[C@H](CO)NC(=O)[C@@H](NC(=O)[C@H](Cc1ccccc1)NC(=O)[C@@H](NC(=O)CNC(=O)[C@H](CCC(=O)O)NC(=O)C(C)(C)NC(=O)[C@@H](N)Cc1ccc(O)cc1)[C@@H](C)O)[C@@H](C)O)[C@@H](C)CC)[C@@H](C)CC)[C@@H](C)CC)C(=O)N[C@@H](CCC(=O)O)C(=O)NCC(=O)NCC(=O)N1CCC[C@H]1C(=O)N[C@@H](CO)C(=O)N[C@@H](CO)C(=O)NCC(=O)N[C@@H](C)C(=O)N1CCC[C@H]1C(=O)N1CCC[C@H]1C(=O)N1CCC[C@H]1C(=O)N[C@@H](CO)C(N)=O
B6: Example 17 (peptide)
peptide: H[Aib]EGTFTSDYSILLDKIAQK([AEEA-AEEA-γGlu-C20 diacid])AFIEYLLE[Aib]GPSSG-NH2
modifications: N-terminus assumed
SMILES: CC[C@H](C)[C@H](NC(=O)[C@H](CCCCN)NC(=O)[C@H](CC(=O)O)NC(=O)[C@H](CC(C)C)NC(=O)[C@H](CC(C)C)NC(=O)[C@@H](NC(=O)[C@H](CO)NC(=O)[C@H](Cc1ccc(O)cc1)NC(=O)[C@H](CC(=O)O)NC(=O)[C@H](CO)NC(=O)[C@@H](NC(=O)[C@H](Cc1ccccc1)NC(=O)[C@@H](NC(=O)CNC(=O)[C@H](CCC(=O)O)NC(=O)C(C)(C)NC(=O)[C@@H](N)Cc1c[nH]cn1)[C@@H](C)O)[C@@H](C)O)[C@@H](C)CC)C(=O)N[C@@H](C)C(=O)N[C@@H](CCC(N)=O)C(=O)N[C@@H](CCCCNC(=O)COCCOCCNC(=O)COCCOCCNC(=O)CC[C@H](NC(=O)CCCCCCCCCCCCCCCCCCC(=O)O)C(=O)O)C(=O)N[C@@H](C)C(=O)N[C@@H](Cc1ccccc1)C(=O)N[C@H](C(=O)N[C@@H](CCC(=O)O)C(=O)N[C@@H](Cc1ccc(O)cc1)C(=O)N[C@@H](CC(C)C)C(=O)N[C@@H](CC(C)C)C(=O)N[C@@H](CCC(=O)O)C(=O)NC(C)(C)C(=O)NCC(=O)N1CCC[C@H]1C(=O)N[C@@H](CO)C(=O)N[C@@H](CO)C(=O)NCC(N)=O)[C@@H](C)CC
B7: Example 12 (peptide)
peptide: Y[Aib]EGTFTSDYSILLDKIAQK([AEEA-AEEA-γGlu-C20 diacid])AFIEYLIEGGPSSGAPPPS-NH2
modifications: N-terminus assumed
SMILES: CC[C@H](C)[C@H](NC(=O)[C@H](CCCCN)NC(=O)[C@H](CC(=O)O)NC(=O)[C@H](CC(C)C)NC(=O)[C@H](CC(C)C)NC(=O)[C@@H](NC(=O)[C@H](CO)NC(=O)[C@H](Cc1ccc(O)cc1)NC(=O)[C@H](CC(=O)O)NC(=O)[C@H](CO)NC(=O)[C@@H](NC(=O)[C@H](Cc1ccccc1)NC(=O)[C@@H](NC(=O)CNC(=O)[C@H](CCC(=O)O)NC(=O)C(C)(C)NC(=O)[C@@H](N)Cc1ccc(O)cc1)[C@@H](C)O)[C@@H](C)O)[C@@H](C)CC)C(=O)N[C@@H](C)C(=O)N[C@@H](CCC(N)=O)C(=O)N[C@@H](CCCCNC(=O)COCCOCCNC(=O)COCCOCCNC(=O)CC[C@H](NC(=O)CCCCCCCCCCCCCCCCCCC(=O)O)C(=O)O)C(=O)N[C@@H](C)C(=O)N[C@@H](Cc1ccccc1)C(=O)N[C@H](C(=O)N[C@@H](CCC(=O)O)C(=O)N[C@@H](Cc1ccc(O)cc1)C(=O)N[C@@H](CC(C)C)C(=O)N[C@H](C(=O)N[C@@H](CCC(=O)O)C(=O)NCC(=O)NCC(=O)N1CCC[C@H]1C(=O)N[C@@H](CO)C(=O)N[C@@H](CO)C(=O)NCC(=O)N[C@@H](C)C(=O)N1CCC[C@H]1C(=O)N1CCC[C@H]1C(=O)N1CCC[C@H]1C(=O)N[C@@H](CO)C(N)=O)[C@@H](C)CC)[C@@H](C)CC

What was measured:
Assay in all cases: cell-based or functional assay
[1] = molecular target: human GLP-1 receptor (human, UniProt P43220 24-463)
[2] = molecular target: human GLP-1 receptor (human, UniProt P43220 24-463); remark: listed apart in the source
[3] = molecular target: T1, human GIP receptor (human, UniProt P48546 22-466)
T1 sequence (looked up): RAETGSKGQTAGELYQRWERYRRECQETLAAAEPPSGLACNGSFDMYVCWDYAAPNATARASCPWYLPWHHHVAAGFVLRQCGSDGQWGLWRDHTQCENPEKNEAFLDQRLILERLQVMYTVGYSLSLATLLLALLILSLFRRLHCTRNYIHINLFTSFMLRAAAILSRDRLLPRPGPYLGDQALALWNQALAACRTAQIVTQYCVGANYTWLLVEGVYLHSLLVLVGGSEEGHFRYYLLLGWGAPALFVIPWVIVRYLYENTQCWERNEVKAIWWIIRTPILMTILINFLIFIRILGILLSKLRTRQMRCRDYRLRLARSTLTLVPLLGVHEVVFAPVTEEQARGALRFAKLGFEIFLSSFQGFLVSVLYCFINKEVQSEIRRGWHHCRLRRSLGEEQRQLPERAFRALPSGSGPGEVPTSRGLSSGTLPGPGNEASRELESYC

Binder | hGLP1R GTPgS % Top [1] [%] | hGLP1R GTPgS Rel EC50 [1] [nM] | hGLP1R cAMP EC50 ratio [2] | hGLP1R cAMP Rel EC50 [2] [nM] | hGIPR cAMP EC50 ratio [3] | hGIPR cAMP Rel EC50 [3] [nM]
B1 | 57.3 | 1.03 | – | – | – | –
B2 | – | – | 1.43 | 0.0437 | 0.157 | 0.975
Y[Aib]EGTFTSDYSILLDKIAQKEFIQYLLE[Aib]GPSSGAPPPS-NH2 (not fully specified (residue 20)) [Example 14] | – | – | 0.0306 | 1.87 | 0.545 | 0.284
B3 | 95.4 | 0.421 | – | – | – | –
B4 | 91.3 | 0.196 | – | – | – | –
B5 | – | – | 0.0133 | 5.39 | 0.18 | 1.05
H[Aib]EGTFTSDYSI[αMeF]LDKK([Dab-AEEA-Dab-AEEA-C20 diacid])AQ[αMeK]AFIQYLLA[Aib]GPSSGAPPPS-NH2 [Example 19] | – | – | 0.532 | 0.104 | 0.436 | 0.386
B6 | – | – | 0.398 | 0.152 | 0.0257 | 5.81
B7 | – | – | 0.0603 | 1.15 | 0.659 | 0.3
H[Aib]EGTFTSDYSILLDKKAQ[Aib]AFIEYLLE[Aib]GPSSGAPPPS-NH2 (not fully specified (residue 17)) [Example 15] | – | – | 1.65 | 0.0336 | 0.273 | 0.613
H[Aib]EGTFTSDYSI[αMeF]LDKK([Dab-AEEA-Dab-AEEA-C20 diacid])AQ[αMeK]AFIQYLLA[Aib]GPSSGAPKPS-NH2 [Example 18] | – | – | 0.589 | 0.0945 | 0.275 | 0.61
